Results as given in patent publication US9346889 (MEDIAPHARMA S R L, dated 2016).
Positions count from the first letter of the chain named.

Experiments:
human ErbB3 receptor [1] = molecular target: T1, human ErbB3 receptor (human, UniProt P21860 20-1342); test: immunofluorescence on IR-8 human melanoma cells, 10 ug/ml, on ice
T1 construct: whole, on cells; also called HER-3; HER3

human ErbB3 receptor [2] = molecular target: T1, human ErbB3 receptor; test: immunofluorescence on IR-8 human melanoma cells
Protocol: IR-8 human melanoma cells were maintained on ice for 30 minutes in the presence of 10 µg/ml of chimeric (cMP-RM-1 #1) or humanized (hMP-RM-1 #6, hMP-RM-1 #10, hMP-RM-1 #20) MP-RM-1 antibody variants and then returned to 37° C. for 60 minutes. Cells were harvested and stained with a fluorescein-labeled goat anti-human IgG antibody and analyzed by FACS.

human ErbB3 receptor [3] = molecular target: T1, human ErbB3 receptor; test: hybridoma screening; reactivity with NIH/3T3 cells transfected with human ErbB3
Protocol: Four-weeks old Balb/c mice were immunized by intraperitoneal injection of live NIH/3T3 cells transfected with the human ErbB3 receptor. Seven days later, mice were given an additional intraperitoneal injection of the immunogen. After additional seven days, mice were boosted intravenously with the immunogen, and spleens were removed for cell fusion 3 days later. Somatic cell hybrids were prepared by fusion of immune splenocytes with the murine nonsecreting myeloma cell line NS-1. Hybridoma supernatants were selected on the basis of differential reactivity with LTR-ErbB3 transfected cells, but not with LTR-neo NIH/3T3. All positive hybridoma cell colonies were cloned twice by limiting dilution and further characterized.

T1 sequence (P21860 20-1342): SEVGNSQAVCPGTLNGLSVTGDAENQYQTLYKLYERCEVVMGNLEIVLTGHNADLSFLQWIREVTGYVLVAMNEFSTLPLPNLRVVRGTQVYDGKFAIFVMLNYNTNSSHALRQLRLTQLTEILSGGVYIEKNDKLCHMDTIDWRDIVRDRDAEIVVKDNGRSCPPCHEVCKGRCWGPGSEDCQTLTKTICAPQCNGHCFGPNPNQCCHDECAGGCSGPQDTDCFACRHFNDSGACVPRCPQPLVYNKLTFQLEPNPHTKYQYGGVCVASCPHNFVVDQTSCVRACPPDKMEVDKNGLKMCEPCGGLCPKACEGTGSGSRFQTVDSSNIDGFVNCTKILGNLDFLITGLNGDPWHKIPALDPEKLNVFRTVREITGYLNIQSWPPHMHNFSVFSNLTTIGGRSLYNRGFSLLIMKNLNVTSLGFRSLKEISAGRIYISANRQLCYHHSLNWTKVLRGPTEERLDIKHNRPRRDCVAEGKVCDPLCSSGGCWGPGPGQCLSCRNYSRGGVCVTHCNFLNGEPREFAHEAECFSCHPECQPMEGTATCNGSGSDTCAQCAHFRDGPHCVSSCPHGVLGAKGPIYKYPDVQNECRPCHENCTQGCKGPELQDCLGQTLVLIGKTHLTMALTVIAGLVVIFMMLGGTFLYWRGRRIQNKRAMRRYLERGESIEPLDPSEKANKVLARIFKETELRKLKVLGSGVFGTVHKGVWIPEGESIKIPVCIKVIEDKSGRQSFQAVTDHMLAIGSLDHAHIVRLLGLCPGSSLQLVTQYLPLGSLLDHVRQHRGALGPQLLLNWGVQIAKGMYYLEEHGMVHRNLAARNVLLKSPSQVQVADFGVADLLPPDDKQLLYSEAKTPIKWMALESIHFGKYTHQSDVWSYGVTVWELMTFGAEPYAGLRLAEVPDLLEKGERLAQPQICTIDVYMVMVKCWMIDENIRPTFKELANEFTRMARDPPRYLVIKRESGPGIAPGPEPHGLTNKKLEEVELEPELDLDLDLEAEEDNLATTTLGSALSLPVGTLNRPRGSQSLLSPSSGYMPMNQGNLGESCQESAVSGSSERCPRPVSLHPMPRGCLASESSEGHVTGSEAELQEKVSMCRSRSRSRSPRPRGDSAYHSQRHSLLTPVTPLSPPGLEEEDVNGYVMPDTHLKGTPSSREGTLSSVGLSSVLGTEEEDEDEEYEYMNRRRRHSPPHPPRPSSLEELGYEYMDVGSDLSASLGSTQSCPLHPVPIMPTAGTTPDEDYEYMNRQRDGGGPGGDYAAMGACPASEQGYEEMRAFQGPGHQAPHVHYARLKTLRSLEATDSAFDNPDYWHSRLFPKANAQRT

B1: hMP-RM-1 #6 (antibody, human IgG1, kappa, V domains shown)
VH: DVQLVESGGGLVQPGGSLRLSCAASGFTFSTYGMSWVRQTPDKRLEWVATISHGDGYTYYPDSVKGRFTISRDNAKNTLYLQMSSLKSEDTAMYYCARHGDYDDDYYAMDYWGQGTLVTVSS
VL: DIQMTQSPSSLSASVGDRVTITCKSSQSLLNSGNQKNYLTWYQQKPGKAPKLLIYWASTRESGVPSRFSGSGSGTDFTLTISSLQPEDFATYYCQNEYTYPLTFGQGTKVEIKR
notes: Humanized IgG1/kappa, from CHO-S cells; also called humanized MP-RM-1 #6; humanized MP-RM-1#6
binding result (human ErbB3 receptor [1]): binds

B2: hMP-RM-1 #10 (antibody, human IgG1, kappa, V domains shown)
VH: B1 VH with A24V, T40A, D42G, R44G, A75S, S84N, K87R, S88A, M93V
VL: B1 VL
notes: Humanized IgG1/kappa, from CHO-S cells
binding result (human ErbB3 receptor [2]): binds

B3: monoclonal antibody MP-RM-1 (antibody, V domains shown)
VH: DVQLVESGGDLVKPGGSLKLSCVVSGFTFSTYGMSWVRQTPDRRLEWVATISHGDGYTYYPDSVKGRFTISRDNAKNTLHLQMSSLKSEDTAMYYCARHGDYDDDYYAMDYWGQGTSVTVS
VL: DIVMTQSPSSLTVIAGEKVTMSCKSSQSLLNSGNQKNYLTWYQQKPGQPPKLLIYWASTRESGVPDRFTGSGSGTDFTLTISSVQAEDLAVYYCQNEYTYPLTFGAGTKLELKR
notes: Murine IgG2a from hybridoma DSM ACC3018; also called DSM ACC3018
binding result (human ErbB3 receptor [3]): binds

B4: cMP-RM-1 #1 (antibody, human IgG1, kappa, V domains shown)
VH: B1 VH with G10D, Q13K, R19K, A23V, A24V, K43R, Y80H, L117S, V120F
VL: B3 VL with L112I
notes: Chimeric human IgG1/kappa, from CHO-S cells; Signal peptide left out; also called chimeric variant cMP-RM-1 #1
binding result (human ErbB3 receptor [2]): binds

B5: hMP-RM-1 #20 (antibody, human IgG1, kappa, V domains shown)
VH: B1 VH with G10D, Q13K, R19K, A23V, K43R, Y80H, L117T
VL: B3 VL with I14S, A15L, K18R, V19A, T69S, L89V, A106G
notes: as for B2
binding result (human ErbB3 receptor [2]): binds
